Experimental data taken from a protein production outcome set (Wang et al. 2014).

Test: label from the status in PepcDB records

| Sequence | protein production |
| --- | --- |
| MNWPNMPPGDRRWLWIGLTLPLCLLNGWVLLQILDYFQSPLRIFIIANLVAFILGYPVRWLQRYPRLKLPYAVALVLLTTAIILAVIGLLVIPKLVDQIRTVLQLLPHLNALGDRHLESLDNLSNQWEIPTNFRAWGRELSNEFPNQIRSITNQLINLLIWTAGSLVEAGFIFIMTVYLLLRGQTFWDGIFRWLPIDWRHKVRQRLRHSFQNYYIGQATVAALLGVSLIISLSIFQVPLALLFGMFVGFMAFFPFGGGTSIVLISIIASFQSIWLGIKVLAIATVVDQVVENGLAPKLLGRVTGVHPVWILLSLMIGAKVAGLLGILVAIPIASFIRDMLNDFI | failed |
| MNWVAPIKDQETLKNFGETLKQVDYKYYIMFELGVGTGLQLQDILAFKNKDVTGKKEIEVTIGTRNMKNVFTVPEELQQIINEYTKGKDPEAYLILGHSSSNKPVSREQAYRVLRSAGHKIGLNSIGAQTMRKTYAWNYYKETGDIYHLQKLFNHASPSITYRFIGEKPNIEVFLKKMTPQENERSRYLLYLNDNGKKKLNKIIDILTGIRDNFDSPANNDAFYGKVDCLLQELEALMENYENTK | failed |
| MNYFIVEVSEQEVKREKEKARELRRSQWWKNRIARGICHYCGEIFPPEELTMDHLVPVVRGGKSTRGNVVPACKECNNRKKYLLPVEWEEYLDSLESEPSDGEGLEHHHHHH | not failed |
| MNYLVLLIPVLFSFHQIFVRLGSREAETISGIYVSLLASTIIFIPSVANPTLDGMFLLYMSLAGVLHFFVARICFYHAISRIGANLSAPLSATRVFFAALLGIFVGEYLTLRVVVMSLLIFAGIVLISRPKGKADAFGVTLGILTGLFSALSSYFVKFGNAVDYNPLFAIFLGFALSTILMTPLAVRKDLSHTKFYLAAGVTVGIAHLLRYVVLKDVPVTVVEPITSSYPLFTLLLSAIFLREGEIFTLRSITGTLLILGGIYVYYA | failed |
| MPADIIIHNGSLITFDEARPQAQALAIQGGMIAAVGSDAEILALAGPETRLIDAGGGTVLPGFIDSHVHLFGGSVELDCLSLYGVKGLDAMRAAIQPYAQANPDDALVFCVMADYDILGTGHTLTRHDLDSILADRPLAMFAPDHHTVWANTAALEATGLLQGGEVDAGSLIVLGEDGLANGELLEPGAYGPILGLTRHGGREMLGLTTGKDPEPPATPDQRARDKDVIARGLAHCAAQGITGLHLMDGNRYQLELLTELEAEGRLLCRCEVPFHMKGTDPVERMTAEAPAMRAAYRGDKVRCNHLKMFIDGVIESGTALMLRPYPGELGANDNTGDEVFTQEHFTACCVEADRLGFQIAVHAIGDAGVRRTIDAFEAARRANGTRDSRHRIEHIEVIHPDDIPRLAELDIVASLQPGHAPRGHVFPPGAVGQYLHPDQIVGAYAWQTIRETGARVVFSTDWPVIPVDVMPSLRAAIAPLDLGPDWPDQSQSLMDTLASYTRDNAWVEFNEDSKGRLKVGMAADIAVLSHDLTALAPDDITQAAAMVTIMDGAVTYQRPG | failed |
| MPAERDSSAAWAVCVYCASGPQHPELLGVAAELGEAIAERGWTLVWGGGRVSAMGAVASAARARGGRTVGVIPTVLMRREIADADADELIVSDTLHERKQIMEDRADAFIALPGGIGTLDEVLDAWTTGFLGLHAKPIVLLDPIGHYEGLWLWLSGLLDSGYITQAAMDRVVLVDKVGAALEACAPG | failed |
| MPAHSLSLYQYYRPPLDWQAQLAFYRLRAVAGMEWFSNTDNDCLEKIAQDKQALEYGRTLQIDDIRAVVHIIHEAHLHRFKLTLTFTPDSPIAGLQKLITQVRRILDLDADMQQIEHNLQRLTDLKLIPKSGLRIPGAGSLEHHHHHH | failed |
| MPASPEESAMTPWTPIARLEEIPRQGARVVATPEGAIAVFRTLDDRVFALLDRCPHKGGPLSQGIVHGARVACPLHNWVIELDSGQAVAPDEGCVRRFETRLEDGMVAIALPDSLVGTLEHHHHHH | not failed |
| MPCTAKVLELRPSVDALLRQHVRTLQGTGRGQCSKSFVPAIRQELVMIALFQGLGLLLQDNALHRLPFDEQVAHWRDKTDAQLDEELSLLKVAKKQWVIASIIGWQAISLILLGVITHQLWQNDYHLTFSRVVIIFTSWASILFVMWYIADLFDHSAGFERWLRAFNSRARVTPDADSVECVADALDMTRRYPEVLRYKQEVTSKRELRHEDIVNMREMGRLRRYTELLRDLDRFDGAPRLVANA | failed |
| MPDGDFITLDRVEKVFDVRRKTGFLRSERRRVRAVDSLSFTVARGEMVGYIGPNGAGKSTTIKMLTGILTPSGGRLRVAGIDPSRERTRLAARIGVVFGQRTTLWWDLPLIDSYRLMHRMYRIPDGRYRENLDRCVELLELGDLLDVPVRQLSLGQRMRGDIAAALLHDPEVLYLDEPTIGLDVISKARVREFLRELNAERGTTVLLTTHDLQDIEQLCGRVMVIDHGRLMYDGPLAGLHEVGDSERTLVVDLARELPPIEAAPARVVKVEGPRQWLAFPASESAAPLVARIAAAYPLVDLSVREPDIEAVIAKMLQSMGDTPQPPPEQAEHVVSLEHHHHHH | not failed |
| MPDKFKRVHVIVMDSVGIGEAPDAAKFGDFDVDTFGHIAKHVGGLKMPEMGKLGLSNIREIEGIEKAEKPLAYYTKMQEASNGKDTMTGHWEIMG | failed |
| MPDNFLIVPSADVQGGRLTTLSNAISTTDLNLTVTGLSNDTELVVYQLSTGVIGTPQAAAQPRETHVFALMGQSNMIGRAAFDGGAKWPDGTLQIGRGGDEDGAIIPARNPADGPATSRPLAHTGARLGNMGLDIQFAIDYLSDKPDVTLLFIPCAQGATGFSNGAWNPGDWLYNRETARINAAMNANPEFLFQGFLWHQGETDTGIPGTYGGLLDNLIAGLRRDVTAATPTTPFILGGLAAGNAGRDAITGIIAATPGRVPYTAFAPTADLSLTDANHFDAASFRTLGARYAAALASAAANQPGAPGIPTGLSAVAGDTEVTLSWSAPANTGGTALSDYIIERDSGSGFAALADGTGTTTGYTDSGLSNGTTYAYRVRAVNGTGTGAATPPQSATPAAPATGPVAEAGAQAHWLFGADNPTYADLVSGRIATGPAHALEAAYMTSPAGIRQGRDTGIAEADAQTMCFVFQLAGSANSMIGGTLTTSGSNGVSPYTSATTGIYANMRGGWGNPAISSASPYRTQFVFAAVSKNVATGNYVLFAGNGAGHDVLTGTSAQTTSPRTIGIGNLHFDRANFSGQISIAEAILFDSAKTEIELTEIYDRSRTRLAARGLTVV | failed |
| MPDPIFSVSDARRSGTRLIGFGIGAIVVILATAATFLLLTLPDANAFNARVERVFIENDLTTQAEIRLLEILAQSGTAFADTLSSYRMVIFVLLVFASAMMIAALAFLVMLVLLNRRMAQIERTGIQVTSLLISREENTVYLNNMEFQLTPAAIETLAVLAEARMDDDVLSGAQIEAVISGRDASDCEEAAGATRIKRLRDTLGNQMISALLVKNIAKRGYMLAIEKSVIQMV | failed |
| MPDPKPEVLDFLLSRRSRPAKTLALPVPDRAALAPILTGALRTPDHGKLEPWRLIVLEAGAMPRLAALADARAEALALDPDKSAKGRAQFAQSHLAVVVVARPEPSDKVPEIEQILSAGAVCLSLLNAAQAAGWGANWLTGWPAYDRGFLREGLGLAETEFVAGIVHIGSETVAPPERPRPDVASLTTWVSE | failed |
| MPDTKIVDANNKFGFKLFSEIAKQDGNAKNISVSPTSVAIALAMTYNGASGSTQKAMAKTLELQGISLPELNSGYASLNKLLQNPGENVQLTIANSLWVNQDVSLRPDFVQTTRDFYQAKVTNLDFQNVTAVNTINSWVQENTKGKIDKIVDNIEPNQALFLINAIYFNGKWSNAFDKSQTTPQTFYTASGQQKQHPMMSQTGEYRYYETPQFQSVSLPYGQDGKVSLYIFLPTKNSNLKAFSQNLNAENWEKWMPQFRNREGSIRLPRFQTDYDITLNDALKSLGMAEAFSNKANFSGIGDNLTISQVRHKTVIEVNEEGTEASAATSVGMVATSLREPQQPFKMIVDRPFFYAIRDNQSKNILFMGAVVEPN | failed |
